Results published in article PMC11457862, “Engineered cytokine/antibody fusion proteins improve IL-2 delivery to pro-inflammatory cells and promote antitumor activity” (JCI Insight, 2024).
Changes are numbered by the printed parent chain. In names and notes the source's numbering stands. Values belong to the binder of their own block, whether it stands above or below them.

How the values were obtained:
[1] = biological target: T1, biotinylated human IL-2 (amino acids 1-133, C-terminal biotin acceptor peptide) (human, UniProt P60568, biotin on the biotin acceptor peptide (BirA ligase)); experiment: BLI; biotinylated human IL-2 or IL-2Rβ on streptavidin tips; engineered 602 IC variants and controls in PBSA; kinetic fit, 1:1 binding model (Supplemental Figure 5, Supplemental Table 4); settings: both partners purified
T1 construct: also called immobilized IL-2; hIL-2; source: HEK 293F, purified (Ni-NTA, biotinylated with BirA, SEC)

[2] = biological target: T1, biotinylated human IL-2 (amino acids …); experiment: BLI; same set-up as a3; equilibrium titration, first-order fit (Supplemental Figure 4A-C, Supplemental Table 4); settings: both partners purified
[3] = biological target: T1, biotinylated human IL-2 (amino acids …); experiment: BLI; same set-up as a1; equilibrium titration of the response at the end of the association phase, first-order fit (Figures 2 and 3, Supplemental Table 1); settings: both partners purified
[4] = biological target: T2, biotinylated mouse IL-2Rβ (Mus musculus, UniProt P16297, biotin); experiment: BLI; same set-up as a7; equilibrium titration, first-order fit (Supplemental Figure 6G,H, Supplemental Table 1); settings: both partners purified
T2 construct: mouse IL-2 receptor beta; the supplementary methods describe only the human constructs; probably an ectodomain with BAP like them; also called mIL-2Rβ

[5] = biological target: T3, biotinylated mouse IL-2Rα (Mus musculus, UniProt P01590, biotin); experiment: as above; settings: both partners purified
T3 construct: mouse IL-2 receptor alpha; the supplementary methods describe only the human constructs; probably an ectodomain with BAP like them; also called mIL-2Rα

[6] = biological target: T1, biotinylated human IL-2 (amino acids …); experiment: BLI; biotinylated human IL-2, IL-2Rα or IL-2Rβ on streptavidin tips (Octet Red96); soluble analyte in PBSA (PBS pH 7.2, 0.1% BSA), 300 s association; kinetic fit, 1:1 binding model; IL-2/602 Cx 2:1 by the legend (Supplemental Figure 2, Supplemental Table 1); settings: both partners purified
[7] = biological target: T1, biotinylated human IL-2 (amino acids …); experiment: flow cytometry on cells; yeast displaying scFv incubated with 5 nM biotinylated IL-2 and titrated IL-2Rα in PBE buffer, 2 h, room temperature; detected with Alexa Fluor 647 streptavidin; settings: one partner purified
[8] = biological target: T1, biotinylated human IL-2 (amino acids …); experiment: BLI; same set-up as a5; equilibrium titration, first-order fit (Supplemental Figure 6C,D, Supplemental Table 5); settings: both partners purified
[9] = biological target: T1, biotinylated human IL-2 (amino acids …); experiment: BLI; biotinylated human IL-2 on streptavidin tips; scFvs, IL-2/antibody complexes (2:1) and ICs in PBSA; kinetic fit, 1:1 binding model (Supplemental Figure 6A,B, Supplemental Table 5); settings: both partners purified
human IL-2 = biological target: T4, human IL-2 (human, UniProt P60568); experiment: BLI; scFvs with IL-2, kinetics; who was immobilised is not told in what was shown; settings: both partners purified
T4 construct: Used soluble, immobilised on BLI tips and in the crystals; also called hIL-2; interleukin-2

T2 sequence (P16297 27-539): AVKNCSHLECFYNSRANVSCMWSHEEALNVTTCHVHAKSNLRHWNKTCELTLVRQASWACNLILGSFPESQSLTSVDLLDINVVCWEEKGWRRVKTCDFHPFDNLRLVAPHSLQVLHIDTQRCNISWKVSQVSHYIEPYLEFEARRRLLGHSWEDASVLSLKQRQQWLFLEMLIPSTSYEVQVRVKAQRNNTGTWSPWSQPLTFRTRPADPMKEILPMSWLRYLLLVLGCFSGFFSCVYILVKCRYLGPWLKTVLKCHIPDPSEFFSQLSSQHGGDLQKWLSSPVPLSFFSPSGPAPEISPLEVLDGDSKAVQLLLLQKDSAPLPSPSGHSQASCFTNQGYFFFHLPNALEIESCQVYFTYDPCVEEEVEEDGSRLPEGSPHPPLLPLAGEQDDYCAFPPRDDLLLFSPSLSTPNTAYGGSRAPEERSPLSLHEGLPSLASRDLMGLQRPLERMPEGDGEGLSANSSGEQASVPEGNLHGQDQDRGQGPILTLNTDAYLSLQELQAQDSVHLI
T3 sequence (P01590 22-268): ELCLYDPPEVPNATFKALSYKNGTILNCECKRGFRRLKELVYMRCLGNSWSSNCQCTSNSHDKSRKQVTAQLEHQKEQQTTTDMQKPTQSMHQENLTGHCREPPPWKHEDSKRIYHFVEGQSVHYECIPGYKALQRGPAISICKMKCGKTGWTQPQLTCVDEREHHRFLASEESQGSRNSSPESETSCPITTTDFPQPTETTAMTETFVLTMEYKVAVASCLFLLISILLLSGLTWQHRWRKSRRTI

B3: yeast-displayed 602 scFv variant C5 (scFv, V domains shown)
VH: EVQLQESGPGLVAPSQSLSITCTVSGFSLTNYDISWIRQPPGKGLEWLGVIWTGGGTNYNSGFMSRLSITKDNSKSQVFLKMNSLQTDDTAIYYCVRQGRTPYWGQGTLVTVSA
VL: DIQVTQSPSSLSVSLGDRVTITCKASKDIYNRLAWYQQKPGNAPRLLISGATSLETGVPSRFSGSGSGKDYTLTITSLQTEDVATYYCQQTWGTPYTFGGGTKLEIK
notes: also called C5 scFv; not shown: Aga2, N-terminal, kept
binding result [7]: binds

B4: 602 scFv (VH-[G4S]3-VL), soluble (scFv, V domains shown)
VH: B3 VH
VL: B3 VL with T91F
notes: the scFv chain of PDB 8SOZ; source: HEK 293F, purified (Ni-NTA, SEC)
Kd [8]: 9 ± 8.59 nM
Kd [9]: 1.94 ± 0.02 nM
koff [9]: 0.00067 s⁻¹
kon [9]: 361000 M⁻¹ s⁻¹

B5: F10 scFv (scFv, V domains shown)
VH: B3 VH with T101S
VL: B3 VL with T91S, G93D
notes: as the scFv of m13 with the stated changes; numbers count on the scFv (T99S in CDR3H, F91S and G93D in CDR3L, Kabat); soluble scFv used for BLI and for the crystal structure; also called variant F10
fold reduction in dissociation rate against 602 scFv (human IL-2): 3.6 fold

B6: F10 scFv (VH-[G4S]3-VL), soluble (scFv, V domains shown)
VH: B3 VH with T101S
VL: B3 VL with T91S, G93D
notes: the scFv chain of PDB 8SOW; source: HEK 293F, purified (Ni-NTA, SEC)
Kd [8]: 6.12 ± 5.66 nM
Kd [9]: 0.34 ± 0.01 nM
koff [9]: 0.000188 s⁻¹
kon [9]: 563000 M⁻¹ s⁻¹

B8: yeast-displayed 602 scFv variant A8 (scFv, V domains shown)
VH: B3 VH
VL: B3 VL with T91F, G93D, T97S
notes: also called A8 scFv; not shown: Aga2, N-terminal, kept
binding result [7]: binds

Now from value to binder:

Kd [1]: 0.044 ± 0.05 nM
koff [1]: 2.8e-05 s⁻¹
kon [1]: 642000 M⁻¹ s⁻¹
Kd [2]: 3.7 ± 7.4 nM
Kd [3]: 6.3 ± 5.2 nM
Kd [4]: > 10000 nM
Kd [5]: > 10000 nM
Kd [6]: 0.13 ± 0.02 nM
koff [6]: 5.1e-05 s⁻¹
kon [6]: 382000 M⁻¹ s⁻¹
B1: anti-human IL-2 antibody 602 (MAB602), recombinant mouse IgG2a kappa (antibody, V domains shown)
VH: B3 VH
VL: B3 VL with T91F
notes: mouse IgG2a heavy chain constant region; mouse kappa light chain constant region; mouse IgG2a kappa; source: HEK 293F, transient co-transfection, purified (Protein G, SEC); copies: 2 + 2

binding result [7]: binds
B2: yeast-displayed 602 scFv variant E10 (scFv, V domains shown)
VH: B3 VH with T101A
VL: B3 VL with T91L
notes: also called E10 scFv; not shown: Aga2, N-terminal, kept

binding result [7]: binds
B7: yeast-displayed 602 scFv variant H2 (scFv, V domains shown)
VH: B3 VH with T101S
VL: B3 VL with Y30H, T91V
notes: also called H2 scFv; not shown: Aga2, N-terminal, kept
